Data: the supplement of paper PMC9732359
± gives the uncertainty stated by the source.

Experiment: protein stability index of a GFP-peptide fusion (yeast GPS) (PSI 1-4); higher = more stable; sorted into four equal gates, so the index is relative within each strain
How it was run: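 Mid-log yeast cultures in leucine-free medium, carrying a pooled plasmid library, were sorted into four equal gates by their GFP/Cherry fluorescence ratio. Each plasmid expressed Cherry along with GFP fused upstream of a tiled 17-residue yeast protein peptide. Plasmids recovered from each gate were PCR-amplified and Illumina-sequenced, with reads assigned to strains by barcodes. The protein stability index was obtained by summing each gate's read frequency weighted by its gate number.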

Sequence | protein stability index (doa10∆) | protein stability index (pdr5∆) | protein stability index (san1∆) | protein stability index (ubr1∆)
EAVELVIGLDSEHDKKR [YML103C/NUP188] | 2.74 ± 0.2 | 3.55 ± 0.15 | 3.16 ± 0.18 | 3.37 ± 0.047
RQTLAPYAVLSQFYELR [YJR042W/NUP85] | 1.98 ± 0.12 | 2.75 ± 0.24 | 2.42 ± 0.16 | 2.35 ± 0.09
LPGELAKHAVSEGTRAV [HTB1] | 3.22 ± 0.11 | 3.46 ± 0.12 | 3.42 ± 0.071 | 3.31 ± 0.088
TVIKFRAGVCEYNEDSR [RPN13] | 2.26 ± 0.12 | 1.96 ± 0.071 | 1.8 ± 0.13 | 2.77 ± 0.07
KPPISDSVFSFGPKKEN [YLR335W/NUP2] | 2.82 ± 0.065 | 2.81 ± 0.057 | 2.75 ± 0.046 | 2.94 ± 0.039
ERQMNFLTNELIRLQME [SWI3] | 3.07 ± 0.11 | 3.12 ± 0.072 | 3.22 ± 0.048 | 3.09 ± 0.069
DVNTNANANANATANAT [SNF11] | 3.13 ± 0.088 | 3.27 ± 0.081 | 3.23 ± 0.045 | 3.32 ± 0.063
PLFFVDLKLLFNTEAEQ [RGR1] | 2.73 ± 0.077 | 2.83 ± 0.063 | 3.19 ± 0.085 | 3.14 ± 0.057
KRPNNKTLEKLESTIAE [IRR1] | 3.62 ± 0.14 | 3.35 ± 0.1 | 3.01 ± 0.096 | 3.31 ± 0.14
GIVLEKLGIESKQPNSA [RPS23A] | 2.05 ± 0.071 | 2.11 ± 0.072 | 1.92 ± 0.11 | 2.38 ± 0.1
EAAKPSLSFGSGSAGAN [YJL041W/NSP1] | 2.83 ± 0.11 | 2.81 ± 0.13 | 3.02 ± 0.13 | 3 ± 0.071
WAADSVSSRVRGYTCQF [FAS1] | 2.56 ± 0.29 | 2.62 ± 0.15 | 2.71 ± 0.11 | 2.69 ± 0.13
EAEIECFDSTTGRDAGF [RRP40] | 3.15 ± 0.17 | 3.12 ± 0.17 | 3.28 ± 0.095 | 3.2 ± 0.12
FLDSMAQKYASIVGVDL [FAS2] | 1.81 ± 0.051 | 2.29 ± 0.048 | 1.96 ± 0.057 | 2.61 ± 0.035
LKEQSEQLKEQMEDMEE [SMC4] | 3.21 ± 0.079 | 2.92 ± 0.13 | 3.3 ± 0.046 | 3.14 ± 0.1
KTFSRLDALTRHIKSKH [RPN4] | 1.11 ± 0.12 | 1.25 ± 0.087 | 1.06 ± 0.12 | 1.5 ± 0.1
MHDSNLQNNSDSESDSD [SKP1] | 2.94 ± 0.11 | 3.18 ± 0.078 | 3.06 ± 0.056 | 3.02 ± 0.068
HGAASFLKERLMEASDA [RPB2] | 1.37 ± 0.15 | 1.48 ± 0.09 | 1.1 ± 0.18 | 1.03 ± 0.087
HNGWVTSLATSAGQPNL [ASC1] | 2.32 ± 0.044 | 2.04 ± 0.049 | 2.09 ± 0.08 | 2.12 ± 0.052
VNQEFIFEAISLSDELN [YJL039C/NUP192] | 2.71 ± 0.071 | 2.65 ± 0.067 | 2.63 ± 0.051 | 2.75 ± 0.058
RAINKVLCTRLRLSNFF [SIR2] | 1.72 ± 0.059 | 1.3 ± 0.059 | 1.18 ± 0.12 | 1.08 ± 0.034
NSEKYYDEDPYGFEDES [RPB2] | 3.47 ± 0.18 | 3.32 ± 0.079 | 3.27 ± 0.066 | 3.25 ± 0.13
ALTVQEVLNRVASRHPS [YDL116W/NUP84] | 3.1 ± 0.086 | 3.15 ± 0.073 | 3.12 ± 0.043 | 3.3 ± 0.047
LKTLTHKQIHTTIFVKS [POP7] | 1.94 ± 0.036 | 2.07 ± 0.038 | 1.77 ± 0.063 | 1.82 ± 0.029
HCYPRQLCQITCQILES [RRP46] | 1.8 ± 0.059 | 1.9 ± 0.058 | 1.72 ± 0.088 | 2 ± 0.048
MNYLLDNKINEIKLLEI [CSI1] | 2.91 ± 0.12 | 2.81 ± 0.098 | 2.67 ± 0.069 | 2.89 ± 0.091
